Test results as given in the supplement of paper PMC9942255.

System: Bacillus subtilis DB104 (SP-AmyQ fusion secretion)
Experiment: AmyQ secretion efficiency, weighted average sort bin (1 = best secretion, 10 = worst) (bin number (weighted average, 1-10)); higher = lower secretion efficiency
In short: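 Secretion score gives the read-frequency-weighted average bin number, normalised to beads per bin, with low-abundance sequences left out. A B. subtilis DB104 library expressing mature AmyQ fused to designed signal peptides, integrated at amyE, was encapsulated with fluorescein-starch at about 0.3 cells per ~65 nL alginate bead. Beads were grown about 13 h at room temperature, stained with nile red, and the occupied ones were sorted by large-particle flow cytometry into 10 equally populated bins by green/red fluorescence ratio before the amplicons from each bin were Illumina-sequenced.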

Row | Sequence | AmyQ secretion efficiency
1 | MKRKRSIMACLILFSFTITTFINTETISAFSN | 3.86
2 | MKNRKRKLVVSVTLFFSFLTIGPLAHAQNS | 1.21
3 | MTMLRKIIGWILLLCIIPLFAFTVIPVVTVASGKEV | 4.51
4 | MHLIRAAGAVCLAVVLIAGCRFIIVAIGAEGENT | 6.53
5 | MKWMCMICCAAVLLAMIGAAQAEAV | 3.44
6 | MRKWYFILLAGVLTSVILAFVYDKTKYNEE | 4.09
7 | MRKTIFAFLTGLMMFGTITASPSTASASPD | 2.04
8 | MKKRLIAPMLLSAASLAFFAMSGSAQMAAY | 6.46
9 | MTKIGLLFMLCLAALFTIGFPAQQADAAEA | 3.42
10 | MRKNRILALFVLSLGLLSFMVTPSSTVSAASK | 2.01
11 | MKLSVKIAGVLTVAAAAMTAKMYQTAKGN | 7.71
12 | MAIIIAIIAANVRNASPG | 7.68
13 | MKRTWNVCLTALLSVLLVAGSVPFHAEAKKK | 2.67
14 | MKTKTLKRFSAILTLSIFAPNETFAQTA | 3.24
15 | MLKKKWMVGLLAGCLAAGFFGYNAFATEN | 6.85
16 | MKKWMITIAMLILAGIALFVFISPIKSHKT | 6.77
17 | MKKMLGKLLITAGILVFFAVVVKDVFAAGL | 7.15
18 | MAIIIAIIAAVIVIAALITFNVQNASPG | 7.71
19 | MLKRTSFVSSGKYTTAVLLSILLPSGQAHAQSA | 2.65
20 | MNITIMSFVAVAALSTTAFGAHASAKEI | 3.64
21 | MMIKQCVICLSLLVFGTTTAHAEET | 2.61
22 | MAIIIAIIAAVIVIAALITFNVPNASPG | 6.07
23 | MKLAKRVSALTPSTTLAITEKAKEL | 7.31
24 | MRPVFPLILSAVLFLSCFRGARQTKASASKR | 7.54
25 | MMGIMIFLTSFMLLAMTGQTALAKDV | 3.75
26 | MSGSRVITCVMAASLTLGSLLPAGYASAKED | 3.72

Row | Sequence | AmyQ secretion efficiency
27 | MKLKKRVSMTSKSSGSCRSLFVTPAKAVKT | 7.23
28 | MKKTGQQLLSLGLVFGFSYGAGHVAEAKTK | 3.07
29 | MSVCQKSIVRFLVSLIIGTFVISVPFMANAQSD | 1.68
30 | MKKWMAGLFLAAAVLLCLMVPQQIQFASS | 5.75
31 | MKKWLIIAVSLAIAIVLFDDTDGEAKAAGM | 2.55
32 | MKRLLVSLRVWMVFLMNWVTPDRKTAADAVY | 5.95
33 | MKKKKRYSQRFLVALTMCGGLFVTPAKAVKT | 6.94
34 | MRSYIKVLTMCFLGLILFVPTGVFGSSPPFAAALADNS | 3.3
35 | MKIRKILLSSALSFGMLKKRRKKALAAGT | 6.86
36 | MKWMTNCSICCAAVLLAGGAAQAEAV | 3.49
37 | MFNRLFRVCFLAALIMAFTLPNSKYAQKP | 6.56
38 | MLKKKWMVGLLAGCLAAGRKKKKKAFATEN | 7.31
39 | MKKQQYGQSKKVVLGSTLFAGAASAQSI | 7.51
40 | MKIRKILLSSALSFGMLISAVPALMAGT | 6.44
41 | MKKKQVMLALTAAAGLGLTALHPGPSAKAAPL | 1.84
42 | MAAQTDYKKQVVGILLSLAFVLFVFSPSERHE | 5.34
43 | MNLRKILLSSALSLGMLEEEDEEVLATSS | 4.45
44 | MRKKLKWLSFLLGFIILLFLFKKRKKRFSNNDS | 7.3
45 | MKSKGSIMACKRLFSFTITTFINTETISAFSN | 6.73
46 | MRNLTKFLLLLAFLCMAAQMVFVTHASAEES | 3.58
47 | MRKTIFAFLTGLMMFGTITACSASPD | 5.81
48 | MSFFTKNRLISSVLSTVVISSLLFPGAAGASSK | 1.61
49 | MKRFSTAYLKKRKLCSAAVFLIGAPSRALGAEV | 6.51
50 | MFNRLFRVCFLAALIMAFTLPNSNYAQKP | 5.99
51 | MKKRLILLSAASLAFFAMSGSAQAAAY | 2.92
52 | MGLGKKLSVAVAASFMSLSISLPGVQAAPG | 2.04

Row | Sequence | AmyQ secretion efficiency
53 | MGGLGTLVLLLLVTGLFMSLFAVTATASAQTG | 3.36
54 | MLKRTSFVSSSSLFISSAVLLSILLPSGQAHAQSA | 1.71
55 | MKRIRIPMTLALGAALTIAPLSFASYEEN | 6.51
56 | MGSRTIWTIILGALLVCCIAVAYTLTKSQAGASSS | 5.01
57 | MKQFAITLSVLCALILLVPTLLVIPRRKKRHKKEAGASV | 5.51
58 | MRMLWRSLALCGLALTLAPCAQCAEP | 3.11
59 | MLGKIALTLCPAIVGSLLFFTAPASAHVS | 2.47
60 | MKKKQVMLALTAAAGLGLTALKHKKKKAKAAPL | 6.6
61 | MPYLKRVLLLLVTGLFMSLFAVTATDSAQTG | 6.72
62 | MKKRLIGFLVLVPALIMSGITLGEANKK | 6.8
63 | MKVLLSALLLLLFAFSPSASGKKL | 4.69
64 | MRKKRVITCVMAASLTLGSLLSPAGYASAKED | 3.22
65 | MRFTKVVGFLSVLGLAAVFPLTSQAEKA | 4.09
66 | MKRLLVSLRVWMVFLMNWVTPDRKTAAARRK | 7.14
67 | MKTKTLFIFSAILTLSIFAPNEGFAQTA | 3.32
68 | MKRIRIPMTLALGAALTIAPLSFASWEEN | 6.97
69 | MKMKSGMEQAVSVLLLLSRLPVQASNTSE | 5.73
70 | MHLIRAAGAVCLAVVLIAGCRFNEDQHQAEGDED | 6.29
71 | MKKKLAAGLTASAIVGTVTPAEAATI | 5.84
72 | MNLRKILLSSALSLGMLVSAAPGLATSS | 3.12
73 | MNLRKILLSSALSLGMLVSAAPTLATSS | 2.34
74 | MGLGLLLSVAVAASFMSLSISLPGVQAAEG | 2.94
75 | MGLGKKLSVAVAASFMSLSISLPGVQVAEG | 3.6
76 | MKKWIYVVLVLSIAGIGGFSNHAASS | 6.81
77 | MRKKTKNRLISSVLSTVVISSLLFPGAAGARKK | 2.52
78 | MKVLLSALLLLLFAFFEPSASGKKL | 6.51

Row | Sequence | AmyQ secretion efficiency
79 | MKKKQVMLKRTAAAGLGLTALHSAPAAKAAPL | 6.55
80 | MKLSVKIAGVLTVAAAAMRKKMYATAKGN | 7.43
81 | MKKVLMAFIICLSLILSVLAAPPSGHKAESV | 7.55
82 | MLCVMMLLFSAIASFPVSASATAQAKDQ | 5.05
83 | MKKGKRTRTIGLLTVSIASPSFAAEK | 6.26
84 | MRKKKRRVLLLLVTGLFMSLFAVTATASAQTG | 1.06
85 | MKKRLIAPMLLSAASLAFFAMSGSAQQAAY | 8.53
86 | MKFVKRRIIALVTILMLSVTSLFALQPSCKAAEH | 2.68
87 | MKKGIIRFLLVSFVLFFALSTGITGAQAAPA | 2.21
88 | MKRRRSIFITCLLITLLTMGGMIASPASAAGT | 2.4
89 | MKWMCSICCAAVLLAGGANQAEAV | 2.83
90 | MRKKRAVLLSLIMLIAGFLISFSFQM | 7.34
91 | MNKKYFVLIVCIIFTSALFPTFSSITAAQG | 1.16
92 | MKSKGSIMACLILFSFTITTFINTETESAFSN | 7.01
93 | MRKTIFAFLTGLMMFKKRTAASASPD | 6.93
94 | MKSKGSIMACLILFSFTITDEINTETISAFSN | 6.09
95 | MKRIRIPMTLSTLALGAALTIAPLSFASAEEN | 3.35
96 | MKKSKQSGRLFLGLTPAGANAADL | 6.97
97 | MFKKLRKKKKRLTFSLSLVLPLDGHAKAQEV | 6.86
98 | MKSKGSIMACLILFSFTITTFINTETCSAFSN | 4.49
99 | MKKWMITIAMLILAGIALFVFISPTKSHKT | 7.06
100 | MLFLLVSLRVWMVFLMNWVTPDRKTAAAAVY | 6.62
101 | MLFKKWMVGLLAGCLAAGGFSYNAFATEN | 4.2
102 | MKWMCSICCAAVLLAGGAMQAEAV | 3.69
103 | MIRSISIFITCLLITLLTMGGMIASPASAAGT | 2.35
104 | MKIRKILLSSALSFGMLISAVPALGAGT | 3.88

Row | Sequence | AmyQ secretion efficiency
105 | MKKAFILSAAAAVGLFTFGGVQQLSAKEL | 3.38
106 | MKLAKRVSALTPSTTLAITAKLKEL | 6.8
107 | MKRIRIPMTLALGAALTIAPLSFASREEN | 6.16
108 | MKVCQKSIVRFRKRRIIGTFVISVPFMANAQSD | 7.62
109 | MLKKKWMVGLLAGCLAAGGFSYNAFSTEN | 6.06
110 | MKKRLIAPMLLSAASLAFFAMSGSAQHAAY | 7.18
111 | MRKYTQIASILLSFLSVLSGGHHESKAFPV | 6.41
112 | MKKTIMSFVAVAALSTTAFGAHLSAKEI | 2.5
113 | MTFTKVVGFLSVLGLAAVFPLTAQAEKA | 3.02
114 | MKKKQVMLALTAAAGLGLTALHSAPAPKAAPL | 6.78
115 | MLKKIALTLCPAIVGSLLFFTKRKKRKASAHVS | 7.45
116 | MLKRTSFVSSLFISSAVLLSILTPDGQAHAQSA | 1.39
117 | MKRLLSTLLIGIMLLTFAPSAFAAQQ | 1.25
118 | MKKAFLVFLSVVLVTTVFLRKKRRKVAQAKQL | 6.27
119 | MKKQIITATTAVVLGSTLFAGADSAQSI | 3.56
120 | MIKLVLCVSILAVILSGVALTQLS | 7.36
121 | MKLKKRVSMFLVALTMCGGLFVTPCKAVKT | 2.35
122 | MKSKGSIMACLILFSFTITTFIAFITISAFSN | 5.09
123 | MKKIWIGMLAAAVLLLTKPKESLADAA | 3.56
124 | MKNMSCKLVVSVTLFFSFLTIGPLNHAQNS | 5.54
125 | MKRKRRKMACLILFSFTITTFINTETISAFSN | 2.31
126 | MLKKKWMVGLLAGCLAAGGFSYNSFATEN | 5.59
127 | MKKKQVSHAIIISVMLSFVIAVFHTIHASYLTP | 6.98
